Data: patent US20220211826A1

How the values were obtained:
[1] = target: PD-L1 expressed by hepatocytes of C57BL/6 mice (mouse) (UniProt Q9EP73); assay: cell-based or functional assay
[2] = target: H-2Kb/SIINFEKL pMHC complex on primary hepatocytes (mouse); assay: cell-based or functional assay

Sequence of UniProt Q9EP73 (Q9EP73 19-290): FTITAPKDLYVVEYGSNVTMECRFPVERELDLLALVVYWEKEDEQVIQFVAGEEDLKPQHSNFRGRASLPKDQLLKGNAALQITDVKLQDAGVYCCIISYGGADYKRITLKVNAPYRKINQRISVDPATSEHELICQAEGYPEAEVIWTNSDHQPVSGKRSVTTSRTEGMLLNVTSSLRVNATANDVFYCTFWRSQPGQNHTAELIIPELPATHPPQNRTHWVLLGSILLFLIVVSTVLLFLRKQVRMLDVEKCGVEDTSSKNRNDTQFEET

With “αPD-L1 blocking Ab (BioxCell, clone 10F.9G2) (antibody)” the frequency of CD45.1+ OT-I cells among viable CD3+CD8+ lymphocytes in dLNs, mice given pGal-OVA- and αPD-L1-treated hepatocytes [1] was 0.45%, the frequency of IFN-γ+ OT-I cells after OVA/LPS challenge, αPD-L1-treated hepatocytes [1] was 47.1% and the frequency of IL-2+ OT-I cells after OVA/LPS challenge, αPD-L1-treated hepatocytes [1] was 7.53%.
Work on “rat IgG isotype control Ab (Abcam) (antibody)” yielded a frequency of CD45.1+ OT-I cells among viable CD3+CD8+ lymphocytes in dLNs, mice given hepatocytes treated with pGal-OVA and isotype control antibody [1] of 0.2%, a frequency of dLN IFN-γ+ OT-I cells, pGal-OVA and isotype control antibody-treated hepatocytes [1] of 29.2% and a frequency of dLN IL-2+ OT-I cells, pGal-OVA and isotype control antibody-treated hepatocytes [1] of 4.21%.
In the case of “T cell receptor of OT-I cells (transgenic CD8+ T cells specific for H-2Kb/SIINFEKL) (TCR)”, the CD69+ OT-I cells after 24 hr co-culture with hepatocytes incubated with pGal-OVA alone [2] is reported as 17%, the CD69+ OT-I cells after 24 hr co-culture with hepatocytes treated with pGal-OVA and MG132 [2] is reported as 3.98% and the CD69+ OT-I cells after 24 hr co-culture with hepatocytes treated with pGal-OVA and chloroquine [2] is reported as 7.38%.
